# Patent US20200199241A1 (Chugai, published 2020)
# Residue numbers refer to the chain shown, from its start. Names may count otherwise.
# T1: human FcγRIIb (human, UniProt P31994 43-217, limits assumed)
# T1 construct: also called FcgRIIb
# T1 sequence: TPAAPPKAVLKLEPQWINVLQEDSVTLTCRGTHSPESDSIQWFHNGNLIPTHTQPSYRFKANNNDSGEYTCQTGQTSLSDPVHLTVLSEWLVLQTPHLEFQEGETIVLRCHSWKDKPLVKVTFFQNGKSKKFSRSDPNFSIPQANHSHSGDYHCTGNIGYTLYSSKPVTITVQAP
# T2: human FcγRIIa(R) (human, UniProt P12318 36-217)
# T2 construct: also called FcgRIIaR; FcγRIIa type R
# T2 chain: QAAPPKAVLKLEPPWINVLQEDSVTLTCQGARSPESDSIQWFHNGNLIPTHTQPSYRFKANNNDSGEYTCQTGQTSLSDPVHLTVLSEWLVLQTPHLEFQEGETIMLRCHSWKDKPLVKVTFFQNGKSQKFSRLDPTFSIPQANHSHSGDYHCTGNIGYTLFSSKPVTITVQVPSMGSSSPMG
# T3: human FcγRIIa(H) (human, UniProt P12318 36-217)
# T3 construct: also called FcgRIIaH; FcγRIIa type H
# T3 sequence: T2 chain with R133H
# B1: GpH7-B3 variant D270K/GpL16-k0 (antibody, human IgG1)
# heavy: not shown
# light: DIVMTQSPLSLPVTPGEPASISCQASESLVHSNRNTYLHWYLQKPGQSPQLLIYKVSNRFSGVPDRFSGSGSGTDFTLKISRVEAEDVGVYYCSQNTHVPPTFGQGTKVEIE
# notes: copies: 2 + 2
# B2: GpH7-B3 variant D265S/GpL16-k0 (antibody, human IgG1)
# heavy: not shown
# light: B1 light
# notes: copies: 2 + 2
# B3: GpH7-B3 variant D270G/GpL16-k0 (antibody, human IgG1)
# heavy: not shown
# light: B1 light
# notes: copies: 2 + 2
# B4: GpH7-B3 variant G237A/GpL16-k0 (antibody, human IgG1)
# heavy: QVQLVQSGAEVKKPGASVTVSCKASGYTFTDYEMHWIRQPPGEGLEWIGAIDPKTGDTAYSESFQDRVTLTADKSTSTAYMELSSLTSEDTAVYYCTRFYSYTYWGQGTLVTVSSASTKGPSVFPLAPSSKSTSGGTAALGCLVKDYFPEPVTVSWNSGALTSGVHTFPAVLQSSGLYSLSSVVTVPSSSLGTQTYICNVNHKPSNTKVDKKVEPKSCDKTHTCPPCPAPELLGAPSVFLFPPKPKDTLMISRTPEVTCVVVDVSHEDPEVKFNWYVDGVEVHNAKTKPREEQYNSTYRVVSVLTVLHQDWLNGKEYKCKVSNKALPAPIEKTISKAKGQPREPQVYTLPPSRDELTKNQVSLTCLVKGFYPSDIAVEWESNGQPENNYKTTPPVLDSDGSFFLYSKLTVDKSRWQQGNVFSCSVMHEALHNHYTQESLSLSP
# light: B1 light
# notes: copies: 2 + 2
# B5: GpH7-B3 variant D265L/GpL16-k0 (antibody, human IgG1)
# heavy: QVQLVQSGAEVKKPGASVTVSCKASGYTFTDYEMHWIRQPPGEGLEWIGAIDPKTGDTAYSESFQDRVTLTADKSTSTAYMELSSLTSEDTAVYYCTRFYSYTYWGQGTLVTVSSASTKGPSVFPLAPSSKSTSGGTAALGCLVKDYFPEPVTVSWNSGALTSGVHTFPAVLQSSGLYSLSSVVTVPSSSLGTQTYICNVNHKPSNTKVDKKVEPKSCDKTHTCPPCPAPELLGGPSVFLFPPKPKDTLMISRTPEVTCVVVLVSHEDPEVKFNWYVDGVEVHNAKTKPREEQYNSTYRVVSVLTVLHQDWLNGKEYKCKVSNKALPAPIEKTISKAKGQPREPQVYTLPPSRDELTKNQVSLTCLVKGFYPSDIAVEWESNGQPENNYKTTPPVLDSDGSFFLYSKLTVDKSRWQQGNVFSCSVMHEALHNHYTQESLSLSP
# light: B1 light
# notes: copies: 2 + 2
# B6: GpH7-B3 variant S239W/GpL16-k0 (antibody, human IgG1)
# heavy: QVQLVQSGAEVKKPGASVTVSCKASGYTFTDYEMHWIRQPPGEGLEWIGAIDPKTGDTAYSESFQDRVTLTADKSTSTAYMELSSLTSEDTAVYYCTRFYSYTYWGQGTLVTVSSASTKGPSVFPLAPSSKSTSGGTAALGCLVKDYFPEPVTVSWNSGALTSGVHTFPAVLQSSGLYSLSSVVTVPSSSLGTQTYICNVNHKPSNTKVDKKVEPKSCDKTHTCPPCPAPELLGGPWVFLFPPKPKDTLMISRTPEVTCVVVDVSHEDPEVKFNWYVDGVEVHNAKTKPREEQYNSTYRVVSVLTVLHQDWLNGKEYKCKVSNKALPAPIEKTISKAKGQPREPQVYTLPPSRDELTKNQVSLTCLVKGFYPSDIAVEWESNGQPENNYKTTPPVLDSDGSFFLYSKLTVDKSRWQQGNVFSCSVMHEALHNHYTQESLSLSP
# light: B1 light
# notes: copies: 2 + 2
# B7: GpH7-B3 variant D270W/GpL16-k0 (antibody, human IgG1)
# heavy: not shown
# light: B1 light
# notes: copies: 2 + 2
# B8: GpH7-B3 variant D265V/GpL16-k0 (antibody, human IgG1)
# heavy: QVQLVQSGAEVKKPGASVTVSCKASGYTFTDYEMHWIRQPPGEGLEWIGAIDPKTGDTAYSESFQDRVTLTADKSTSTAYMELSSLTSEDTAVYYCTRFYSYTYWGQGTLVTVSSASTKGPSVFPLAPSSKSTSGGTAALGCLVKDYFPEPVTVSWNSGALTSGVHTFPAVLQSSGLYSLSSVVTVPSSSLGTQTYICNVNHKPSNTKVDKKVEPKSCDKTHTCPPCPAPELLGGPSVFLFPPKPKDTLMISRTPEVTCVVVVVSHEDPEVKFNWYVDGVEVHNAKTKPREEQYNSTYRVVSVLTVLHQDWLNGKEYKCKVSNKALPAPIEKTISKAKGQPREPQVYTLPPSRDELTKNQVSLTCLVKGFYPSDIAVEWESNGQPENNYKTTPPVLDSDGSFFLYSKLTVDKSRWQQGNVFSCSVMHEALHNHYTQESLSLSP
# light: B1 light
# notes: copies: 2 + 2
# B9: GpH7-B3 variant D265G/GpL16-k0 (antibody, human IgG1)
# heavy: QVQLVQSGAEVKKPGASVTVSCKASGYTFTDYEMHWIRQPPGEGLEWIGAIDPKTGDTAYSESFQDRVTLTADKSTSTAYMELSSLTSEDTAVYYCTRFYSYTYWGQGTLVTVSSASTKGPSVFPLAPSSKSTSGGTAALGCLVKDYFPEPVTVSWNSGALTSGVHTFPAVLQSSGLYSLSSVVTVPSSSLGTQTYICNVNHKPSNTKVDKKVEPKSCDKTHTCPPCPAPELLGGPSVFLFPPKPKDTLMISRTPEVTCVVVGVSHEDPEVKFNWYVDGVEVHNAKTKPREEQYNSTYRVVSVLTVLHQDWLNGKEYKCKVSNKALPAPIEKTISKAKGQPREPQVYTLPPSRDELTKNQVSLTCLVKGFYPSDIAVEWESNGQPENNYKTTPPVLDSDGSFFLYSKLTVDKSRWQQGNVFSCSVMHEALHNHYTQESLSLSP
# light: B1 light
# notes: copies: 2 + 2
# B10: GpH7-B3 variant D265R/GpL16-k0 (antibody, human IgG1)
# heavy: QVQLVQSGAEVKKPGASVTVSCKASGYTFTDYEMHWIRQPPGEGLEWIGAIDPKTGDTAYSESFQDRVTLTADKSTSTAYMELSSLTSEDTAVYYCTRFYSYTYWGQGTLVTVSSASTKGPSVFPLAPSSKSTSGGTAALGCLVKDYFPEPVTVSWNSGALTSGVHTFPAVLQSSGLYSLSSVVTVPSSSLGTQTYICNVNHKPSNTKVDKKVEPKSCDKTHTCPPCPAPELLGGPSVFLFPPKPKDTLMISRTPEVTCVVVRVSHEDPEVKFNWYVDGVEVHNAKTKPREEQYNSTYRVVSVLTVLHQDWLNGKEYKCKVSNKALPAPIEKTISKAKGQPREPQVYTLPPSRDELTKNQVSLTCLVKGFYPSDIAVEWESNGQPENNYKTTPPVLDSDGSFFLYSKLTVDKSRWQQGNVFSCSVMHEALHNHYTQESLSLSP
# light: B1 light
# notes: copies: 2 + 2
# B11: GpH7-B3 variant E269W/GpL16-k0 (antibody, human IgG1)
# heavy: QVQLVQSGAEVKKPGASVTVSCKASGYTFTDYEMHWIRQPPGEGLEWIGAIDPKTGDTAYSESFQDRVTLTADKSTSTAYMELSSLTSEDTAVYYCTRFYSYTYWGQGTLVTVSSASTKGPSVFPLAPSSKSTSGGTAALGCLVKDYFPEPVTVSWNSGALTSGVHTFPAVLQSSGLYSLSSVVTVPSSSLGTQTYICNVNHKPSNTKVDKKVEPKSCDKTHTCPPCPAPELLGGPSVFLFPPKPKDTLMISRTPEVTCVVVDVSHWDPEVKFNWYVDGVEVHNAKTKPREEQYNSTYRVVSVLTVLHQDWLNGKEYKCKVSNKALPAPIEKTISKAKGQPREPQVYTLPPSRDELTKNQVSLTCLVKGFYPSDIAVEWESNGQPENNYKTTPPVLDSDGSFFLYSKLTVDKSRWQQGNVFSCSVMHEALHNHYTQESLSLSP
# light: B1 light
# notes: copies: 2 + 2
# B12: GpH7-B3 variant G237Y/GpL16-k0 (antibody, human IgG1)
# heavy: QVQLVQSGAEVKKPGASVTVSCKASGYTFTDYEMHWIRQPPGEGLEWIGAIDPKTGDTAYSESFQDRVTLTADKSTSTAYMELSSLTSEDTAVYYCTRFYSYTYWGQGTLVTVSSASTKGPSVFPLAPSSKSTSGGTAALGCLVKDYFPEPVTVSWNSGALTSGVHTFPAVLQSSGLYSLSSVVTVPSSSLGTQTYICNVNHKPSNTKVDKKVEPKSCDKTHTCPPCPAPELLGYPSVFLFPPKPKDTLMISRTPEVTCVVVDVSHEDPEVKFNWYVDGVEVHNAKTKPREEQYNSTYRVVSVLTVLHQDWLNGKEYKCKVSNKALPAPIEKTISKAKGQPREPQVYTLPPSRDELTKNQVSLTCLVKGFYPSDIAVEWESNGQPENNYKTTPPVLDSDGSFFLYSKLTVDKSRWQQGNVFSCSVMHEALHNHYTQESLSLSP
# light: B1 light
# notes: copies: 2 + 2
# B13: GpH7-B3 variant E269I/GpL16-k0 (antibody, human IgG1)
# heavy: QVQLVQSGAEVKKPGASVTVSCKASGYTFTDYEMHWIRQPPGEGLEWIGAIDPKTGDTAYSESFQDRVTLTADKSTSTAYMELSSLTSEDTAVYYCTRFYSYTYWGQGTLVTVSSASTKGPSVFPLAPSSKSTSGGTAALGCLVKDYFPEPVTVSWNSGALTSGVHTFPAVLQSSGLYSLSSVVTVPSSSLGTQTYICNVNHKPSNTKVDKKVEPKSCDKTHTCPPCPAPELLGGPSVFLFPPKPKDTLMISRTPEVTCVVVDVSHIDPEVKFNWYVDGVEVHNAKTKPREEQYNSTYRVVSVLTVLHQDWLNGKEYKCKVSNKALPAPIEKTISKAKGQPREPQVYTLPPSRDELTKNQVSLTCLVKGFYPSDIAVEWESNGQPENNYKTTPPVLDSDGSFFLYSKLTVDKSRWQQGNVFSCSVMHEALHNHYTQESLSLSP
# light: B1 light
# notes: copies: 2 + 2
# B14: GpH7-B3 variant P238E/GpL16-k0 (antibody, human IgG1)
# heavy: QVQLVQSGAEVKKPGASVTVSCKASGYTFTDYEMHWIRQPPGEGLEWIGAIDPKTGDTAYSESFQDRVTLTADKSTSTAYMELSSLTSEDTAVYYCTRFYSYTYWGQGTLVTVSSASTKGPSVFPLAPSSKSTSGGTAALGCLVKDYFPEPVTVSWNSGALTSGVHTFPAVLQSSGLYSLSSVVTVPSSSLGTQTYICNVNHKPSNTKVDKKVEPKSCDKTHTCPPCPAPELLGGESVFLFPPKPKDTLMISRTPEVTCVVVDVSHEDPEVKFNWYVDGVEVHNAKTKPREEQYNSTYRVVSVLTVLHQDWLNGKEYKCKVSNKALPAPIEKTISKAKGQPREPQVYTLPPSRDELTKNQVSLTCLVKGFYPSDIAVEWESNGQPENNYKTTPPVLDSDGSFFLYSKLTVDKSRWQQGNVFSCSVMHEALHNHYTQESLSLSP
# light: B1 light
# notes: copies: 2 + 2
# B15: GpH7-B3 variant E269H/GpL16-k0 (antibody, human IgG1)
# heavy: not shown
# light: B1 light
# notes: copies: 2 + 2
# Target: T1, human FcγRIIb
# Assay: SPR (Biacore);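 further: antibody variants captured on sensor chip, Fcγ receptor flowed over at 25 °C, bound receptor normalized to amount of captured antibody, expressed relative to reference antibody set as 100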
row,relative binding activity,Binder
1,-5 % of GpH7-B3/GpL16-k0,B1
2,1 % of GpH7-B3/GpL16-k0,B2
3,3 % of GpH7-B3/GpL16-k0,B3
4,49 % of GpH7-B3/GpL16-k0,B4
5,0 % of GpH7-B3/GpL16-k0,B5
6,17 % of GpH7-B3/GpL16-k0,B6
7,2 % of GpH7-B3/GpL16-k0,B7
8,-1 % of GpH7-B3/GpL16-k0,B8
9,-1 % of GpH7-B3/GpL16-k0,B9
10,-1 % of GpH7-B3/GpL16-k0,B10
11,13 % of GpH7-B3/GpL16-k0,B11

# Target: T2, human FcγRIIa(R)
# Assay: SPR (Biacore);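 further: antibody variants captured on sensor chip, Fcγ receptor flowed over at 25 °C, bound receptor normalized to amount of captured antibody, expressed relative to reference antibody set as 100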
row,relative binding activity,Binder
1,77 % of GpH7-B3/GpL16-k0,B12
2,-4 % of GpH7-B3/GpL16-k0,B1
3,0 % of GpH7-B3/GpL16-k0,B2
4,16 % of GpH7-B3/GpL16-k0,B13
5,3 % of GpH7-B3/GpL16-k0,B3
6,85 % of GpH7-B3/GpL16-k0,B4
7,0 % of GpH7-B3/GpL16-k0,B5
8,19 % of GpH7-B3/GpL16-k0,B6
9,21 % of GpH7-B3/GpL16-k0,B14
10,-2 % of GpH7-B3/GpL16-k0,B7
11,-1 % of GpH7-B3/GpL16-k0,B8
12,1 % of GpH7-B3/GpL16-k0,B9
13,-1 % of GpH7-B3/GpL16-k0,B10
14,21 % of GpH7-B3/GpL16-k0,B11
15,12 % of GpH7-B3/GpL16-k0,B15

# Target: T4, human FcγRIa (human, UniProt P12314 16-292, limits assumed)
# T4 construct: also called FcgRIa; FcγRI (CD64)
# Assay: SPR (Biacore);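 further: antibody variants captured on sensor chip, Fcγ receptor flowed over at 25 °C, bound receptor normalized to amount of captured antibody, expressed relative to reference antibody set as 100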
# T4 sequence (P12314 16-292 limits assumed): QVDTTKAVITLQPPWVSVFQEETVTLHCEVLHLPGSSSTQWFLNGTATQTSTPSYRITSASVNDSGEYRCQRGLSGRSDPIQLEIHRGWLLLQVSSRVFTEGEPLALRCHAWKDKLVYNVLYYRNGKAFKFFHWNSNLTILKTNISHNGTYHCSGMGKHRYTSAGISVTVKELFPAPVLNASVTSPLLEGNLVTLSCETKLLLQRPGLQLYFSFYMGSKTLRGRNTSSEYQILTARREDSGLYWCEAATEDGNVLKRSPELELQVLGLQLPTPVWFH
row,relative binding activity,Binder
1,7 % of GpH7-B3/GpL16-k0,B12
2,45 % of GpH7-B3/GpL16-k0,B1
3,20 % of GpH7-B3/GpL16-k0,B2
4,94 % of GpH7-B3/GpL16-k0,B13
5,82 % of GpH7-B3/GpL16-k0,B3
6,45 % of GpH7-B3/GpL16-k0,B4
7,7 % of GpH7-B3/GpL16-k0,B5
8,69 % of GpH7-B3/GpL16-k0,B6
9,95 % of GpH7-B3/GpL16-k0,B14
10,74 % of GpH7-B3/GpL16-k0,B7
11,3 % of GpH7-B3/GpL16-k0,B8
12,11 % of GpH7-B3/GpL16-k0,B9
13,5 % of GpH7-B3/GpL16-k0,B10
14,96 % of GpH7-B3/GpL16-k0,B11
15,95 % of GpH7-B3/GpL16-k0,B15

# Target: T3, human FcγRIIa(H)
# Assay: SPR (Biacore);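 further: antibody variants captured on sensor chip, Fcγ receptor flowed over at 25 °C, bound receptor normalized to amount of captured antibody, expressed relative to reference antibody set as 100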
row,relative binding activity,Binder
1,4 % of GpH7-B3/GpL16-k0,B12
2,16 % of GpH7-B3/GpL16-k0,B1
3,2 % of GpH7-B3/GpL16-k0,B2
4,32 % of GpH7-B3/GpL16-k0,B13
5,29 % of GpH7-B3/GpL16-k0,B3
6,0 % of GpH7-B3/GpL16-k0,B5
7,2 % of GpH7-B3/GpL16-k0,B14
8,38 % of GpH7-B3/GpL16-k0,B7
9,0 % of GpH7-B3/GpL16-k0,B8
10,1 % of GpH7-B3/GpL16-k0,B9
11,0 % of GpH7-B3/GpL16-k0,B10
12,30 % of GpH7-B3/GpL16-k0,B11
13,24 % of GpH7-B3/GpL16-k0,B15

# Target: T5, human FcγRIIIa(F) (human, UniProt P08637 17-208, limits assumed)
# T5 construct: also called FcgRIIIaF; allotype F158
# Assay: SPR (Biacore)
# T5 sequence (P08637 other isoform, or with tags, fused parts or gaps limits assumed): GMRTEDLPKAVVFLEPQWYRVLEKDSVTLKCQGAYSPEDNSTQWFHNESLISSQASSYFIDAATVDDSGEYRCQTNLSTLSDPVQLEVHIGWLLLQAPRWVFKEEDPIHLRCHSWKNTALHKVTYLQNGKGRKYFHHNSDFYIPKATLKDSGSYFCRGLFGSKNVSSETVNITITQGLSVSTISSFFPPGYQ
row,relative binding activity,Binder
1,0 % of GpH7-B3/GpL16-k0,B12
2,5 % of GpH7-B3/GpL16-k0,B1
3,-2 % of GpH7-B3/GpL16-k0,B2
4,10 % of GpH7-B3/GpL16-k0,B13
5,6 % of GpH7-B3/GpL16-k0,B3
6,4 % of GpH7-B3/GpL16-k0,B4
7,-1 % of GpH7-B3/GpL16-k0,B5
8,19 % of GpH7-B3/GpL16-k0,B6
9,1 % of GpH7-B3/GpL16-k0,B14
10,7 % of GpH7-B3/GpL16-k0,B7
11,-1 % of GpH7-B3/GpL16-k0,B8
12,-1 % of GpH7-B3/GpL16-k0,B9
13,-1 % of GpH7-B3/GpL16-k0,B10
14,12 % of GpH7-B3/GpL16-k0,B15
